Source: US6723321B2 (priority 1998, dated 2004)
Read-outs that look alike come from different tables or passages of the source.

Experiments:
[1] = target: T1, RhlI (Pseudomonas aeruginosa, UniProt P54291); test: radioactive in vitro assay for RhlI activity (C14-labeled SAM); type: biochemical; settings: for Activity in radioactive assay: potential acyl group substrates, 61 μM SAM as co-substrate
[2] = target: T1, RhlI; type: biochemical
[3] = target: T1, RhlI; type: biochemical; settings: acyl substrate varied, SAM held at 95 μM; for Km: read-out: Apparent Km
[4] = test system: CCCC(=O)SCCNC(=O)CCNC(=O)[C@H](O)C(C)(C)COP(=O)(O)OP(=O)(O)OC[C@H]1O[C@@H](n2cnc3c(N)ncnc32)[C@H](O)[C@@H]1OP(=O)(O)O; test: purified protein, by the assay type; settings: other: acyl substrate varied, SAM held at 95 μM
[5] = target: T1, RhlI; type: biochemical; settings: 61 μM SAM as co-substrate; tested in the R. solanacearum bioassay
[6] = potential acyl group substrates, 61 μM SAM as co-substrate

T1 sequence (P54291 whole entry, looked up): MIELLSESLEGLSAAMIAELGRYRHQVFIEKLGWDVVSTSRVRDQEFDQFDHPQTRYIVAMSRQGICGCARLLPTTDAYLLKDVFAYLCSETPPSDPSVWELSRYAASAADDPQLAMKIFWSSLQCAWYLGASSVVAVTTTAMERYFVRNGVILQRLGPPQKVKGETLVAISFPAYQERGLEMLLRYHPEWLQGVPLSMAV

Molecule	Activity in butyryl HSL bioassay [2, 6]	Activity in radioactive assay [1]	Apparent Vmax [3]	Km [3] [µM]	also measured
NC(=O)C1=CN([C@@H]2O[C@H](COP(=O)(O)OP(=O)(O)OC[C@H]3O[C@@H](n4cnc5c(N)ncnc54)[C@H](OP(=O)(O)O)[C@@H]3O)[C@@H](O)[C@H]2O)C=CC1 [NADPH]					effect on the reaction rate ([1]; included with butyryl-ACP and SAM): slightly increase
CCCC(=O)SCCNC(=O)CCNC(=O)[C@H](O)C(C)(C)COP(=O)(O)OP(=O)(O)OC[C@H]1O[C@@H](n2cnc3c(N)ncnc32)[C@H](O)[C@@H]1OP(=O)(O)O [butyryl-CoA]	38 nmoles butyryl HSL formed min^−1 mg^−1	82 nmoles butyryl HSL formed min^−1 mg^−1	2.1 mol of butyryl HSL min^−1 mol^−1 of RhlI		
CCCCCC(=O)SCCNC(=O)CCNC(=O)[C@H](O)C(C)(C)COP(=O)(O)OP(=O)(O)OC[C@H]1O[C@@H](n2cnc3c(N)ncnc32)[C@H](O)[C@@H]1OP(=O)(O)O [hexanoyl-CoA]		4 nmoles butyryl HSL formed min^−1 mg^−1			
N[C@@H](CCS)C(=O)O [homocysteine]					activity, fold less when compared to reactions containing SAM ([2]; butyryl HSL bioassay, amino acid substrate): at least 150 fold; Activity in butyryl HSL bioassay ([2]; potential amino acid substrates, 39 μM butyryl ACP as co-substrate): <2 nmoles butyryl HSL formed min^−1 mg^−1
RhlI (Pseudomonas aeruginosa PAO1)					Km [4]: 230 µM
butyryl-ACP: acylated acyl carrier protein with attached butyryl group; acyl substrate of RhlI	532 nmoles butyryl HSL formed min^−1 mg^−1	650 nmoles butyryl HSL formed min^−1 mg^−1		6	
hexanoyl-ACP: acylated acyl carrier protein with attached hexanoyl group	91 nmoles butyryl HSL formed min^−1 mg^−1	263 nmoles butyryl HSL formed min^−1 mg^−1	9.6 mol of butyryl HSL min^−1 mol^−1 of RhlI	8	
octanoyl-ACP: acylated acyl carrier protein with attached octanoyl group		28 nmoles butyryl HSL formed min^−1 mg^−1	1.8 mol of butyryl HSL min^−1 mol^−1 of RhlI	43	Activity in radioactive assay ([1]; listed as Octanoyl-ACP): demonstrated to be a substrate of RhlI; Activity in bioassay (R. solanacearum bioassay) [5]: not detected as a substrate
